Results as given in the supplement of paper PMC10567573.

B1: ZNF649 (parent)
chain: LVAHQRYHTGKTPFVCPECGQPCS
B2: SMARCE1 (parent)
chain: YHNSPAYLAYINAKSRAEAALEEE

Variants of: B1
Assay: protein stability index of a GFP-peptide fusion (GPS, HEK-293T) (PSI 1-6); higher = more stable
Conditions: c terminus: a fixed tail appended
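Further: lentivirally expressed fusions sorted by FACS into six bins by GFP to DsRed ratio, PSI derived from sequencing read proportions per bin multiplied by bin number.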

Protein stability index of substitutions, site by site:
C19: T 3.26, W 1.81, V 2.42, R 2.51, Y 2.08, P 3.21, S 3.15, Q 2.92, N 2.92
Q21: F 2.21, D 3.67, C 3.08, R 2.62, N 2.66, Y 2.77, E 3.59, G 3.93, T 3.24, M 2.44, S 2.86, K 3.19, L 2.74, I 2.58, A 3.06, V 3.5, W 2.97, P 2.9, H 3.09
C23: A 3.27, W 2.42, G 2.87, S 2.56, R 3.19, Y 2.31, P 3.47, M 2.54, D 3.72, K 3.12, H 3.15, Q 2.73, L 2.67, T 3.35, I 2.98, N 3.06, V 2.99, F 2.49, E 3.09
G20: C 2.74, I 2.27, N 3.25, Y 2.52, D 3.48, L 2.59, P 3.12, A 3.06, Q 3.14, W 2.55, T 3.11, F 2.85, E 3.07, V 2.47, R 2.52, S 3.13, H 2.88, K 2.86, M 3.03
P22: S 3.53, M 2.9, I 3.25, Y 3.84, C 3.85, N 3.77, G 3.35, Q 4.03, H 3.41, V 3.5, W 2.38, L 3.13, A 3.58, R 3.28, F 3.1, D 3.69, T 3.33, K 3.6, E 3.75
S24: V 3.13, A 2.94, I 2.77, H 3.23, E 3.36, Q 3.12, W 3.08, D 3.76, T 3.36, N 2.97, G 3.54, F 3.71, K 3.23, Y 2.62, L 2.82, M 2.67, P 3.57, C 3.13, R 2.68

Variants of: B2
Assay: as above
Conditions: c terminus: a fixed tail appended

Protein stability index: each site, then its substitutions
I11: N 2.59, E 2.64, Q 2.85, Y 3.27, H 2.46, M 2.35, T 2.99, F 2.67, S 2.99, V 2.33, D 3.19, G 1.87
E22: H 2.83, M 2.01, C 2.17, P 2.73, V 2.73, D 2.21, S 2.41, A 2.7, K 1.86
E24: I 1.88, D 2.3
K14: R 2.51, D 1.16, M 1.57, I 2.81, E 2.03, T 2.86, Y 2.63, P 1.95, A 1.79, V 2.15, Q 2.55
A17: G 3.02, Y 2.05, V 2.19, P 2.45, C 2.1, L 2.04, D 1.93, W 2.17, N 2.67, M 2.23, Q 3.13
S4: V 2.44, T 2.6, G 2.45, Y 2.09, L 2.35, D 3.31, W 2.41, Q 3.3, A 3.12, F 2.04, C 1.56, M 3.39
A9: S 2.96, Q 1.84, N 2.39, M 1.38, C 1.77, F 1.94, V 2.29, D 1.42, H 2.51
A19: Y 2.46, R 2.59, K 2.05, H 2.02, Q 2.12, M 2.24, S 2.06
N12: Y 2.23, S 1.58, Q 2.25, K 2.41, M 2.33, P 3.69, C 2.02, T 2.06, H 3.13
L8: H 2.12, K 3.83, S 3.08, F 2.93, R 2.47, G 1.69, I 3.09, Y 2.5, M 2.23, A 3.39, V 2.49
E23: G 3.34, Y 1.58, S 1.54, T 3.01, R 1.82, A 2.34, F 2.31, K 2.05, Q 1.59, L 1.59
R16: P 2.12, Q 2.17, H 2.15, S 2.43, N 1.35, M 1.81, Y 2.82, A 2.04, L 2.56, T 2.55
Y10: V 2.41, P 2.11, W 2.28, G 1.75, D 2.37, L 2, T 3.44, F 2.32, S 2.56, M 2.3, Q 2.19, E 2.94, N 2.05
A13: G 2.27, I 2.49, H 2.88, F 2.06, Y 2.13, T 2.28, W 1.64, E 1.94, P 2.63, R 2.51, C 3.05, S 1.83
Y7: I 2.47, G 2.31, Q 2.77, N 2.31, L 2.28, H 2.78, E 3.06, T 2.95, P 2.98
S15: E 2.29, W 2.08, H 2.59, P 1.61, R 2.04, G 2.11, A 2.53, N 2.29, C 3.03
Y1: I 4.78, V 4.95, A 5.18, C 4.74, W 4.52, Q 5.29, H 4.6, L 4.97
E18: N 2.21, T 1.82, I 3.18, G 2.31, L 1.61, P 1.88, Q 1.51, D 2.4
A6: I 2.61, R 2.14, P 1.94, S 2.43, F 2.06, H 2.3, N 1.81, D 2.12, T 1.78, G 2.37, L 1.81
A20: Q 1.79, H 2.51, R 2.89, S 1.84, T 1.61, P 2.66, Y 3.29, F 1.69, E 2.32, K 2.71, G 3.01, N 2.42
H2: P 1.84, Q 1.7, F 2.79, D 4.99, S 2.5, R 4.83, L 2.09, G 2.65, E 4.87, I 2.2, Y 4.42, K 5.07, N 3.77
N3: A 2.05, S 1.81, Q 1.57, H 1.69, P 1.55, M 2.06, F 1.81
L21: F 3.43, Y 1.94, D 1.88, V 2.67, E 1.84, C 2.89, P 3.6, W 2.94, A 2.26
P5: V 3.69, T 2.46, A 2.76, F 3.01, H 3.81, R 2.99
